Measured values as given in PMC6196502 (Proceedings of the National Academy of Sciences of the …, 2018).

Experiments:
solid-state NMR = target: the molecule itself; experiment: solid-state NMR
[1] = target: the molecule itself; experiment: urea-driven polymer dissolution

B1: segmentally labeled mCherry-hnRNPA2-LC D290V (ligated construct, G280C) (domain or fragment, human, UniProt P22626-2 181-341, looked up)
chain: MQEVQSSRSGRGGNFGFGDSRGGGGNFGPGPGSNFRGGSDGYGSGRGFGDGYNGYGGGPGGGNFGGSPGYGGGRGGYGGGGPGYGNQGGGYGGGYDNYGCGNYGSGNYNVFGNYNQQPSNYGPMKSGNFGGSRNMGGPYGGGNYGPGGSGGSGGYGGRSRY
solid-state NMR
  binding result: binds

B2: GFP-hnRNPA2-LC D290V (domain or fragment, human, UniProt P22626-2 181-341, looked up)
chain: MQEVQSSRSGRGGNFGFGDSRGGGGNFGPGPGSNFRGGSDGYGSGRGFGDGYNGYGGGPGGGNFGGSPGYGGGRGGYGGGGPGYGNQGGGYGGGYDNYGGGNYGSGNYNVFGNYNQQPSNYGPMKSGNFGGSRNMGGPYGGGNYGPGGSGGSGGYGGRSRY
[1]
  binding result: binds
